Measured values taken from article PMC8406323, “Cellular 5′-3′ mRNA Exoribonuclease XRN1 Inhibits Interferon Beta Activation and Facilitates Influenza A Virus Replication” (mBio, 2021).

Biological target: T1, GST-XRN1-C-terminal region (aa 1174–1706) fusion protein (human, UniProt Q8IZH2 1174-1706)
T1 construct: XRN1, human, C-terminal region aa 1174-1706 (vector pGEX-6P); Held on glutathione beads in the pull-down; also called GST-tagged-XRN1 (aa 1174–1706); source: E. coli BL21(DE3), purified (glutathione Sepharose 4B)
T1 sequence: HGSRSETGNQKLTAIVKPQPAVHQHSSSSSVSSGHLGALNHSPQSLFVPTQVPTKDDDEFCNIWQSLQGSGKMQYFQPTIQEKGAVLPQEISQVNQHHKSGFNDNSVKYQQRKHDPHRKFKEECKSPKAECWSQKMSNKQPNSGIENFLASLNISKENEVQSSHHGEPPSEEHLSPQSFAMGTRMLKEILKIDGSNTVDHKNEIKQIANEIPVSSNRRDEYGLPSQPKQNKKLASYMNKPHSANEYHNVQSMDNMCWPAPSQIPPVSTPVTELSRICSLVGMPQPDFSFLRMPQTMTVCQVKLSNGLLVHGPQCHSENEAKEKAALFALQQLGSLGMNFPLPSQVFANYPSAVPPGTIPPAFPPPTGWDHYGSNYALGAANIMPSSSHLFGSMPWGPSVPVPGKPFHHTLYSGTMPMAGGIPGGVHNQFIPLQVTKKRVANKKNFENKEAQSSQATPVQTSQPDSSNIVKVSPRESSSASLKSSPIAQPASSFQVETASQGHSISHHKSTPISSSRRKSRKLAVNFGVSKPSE
Test: pull-down
Settings: both partners purified

B1: His-NS1 from PR8 (natural protein)
chain: MDPNTVSSFQVDCFLWHVRKRVADQELGDAPFLDRLRRDQKSLRGRGSTLGLDIETATRAGKQIVERILKEESDEALKMTMASVPASRYLTDMTLEEMSRDWSMLIPKQKVAGPLCIRMDQAIMDKNIILKANFSVIFDRLETLILLRAFTEEGAIVGEISPLPSLPGHTAEDVKNAVGVLIGGLEWNDNTVRVSETLQRFAWRSSNENGRPPLTPKQKREMAGTIRSEV
notes: also called His-tagged NS1; recombinant NS1
  binding result: binds
